# Measured values: the RNAGym collection of RNA variant scans (doi:10.1101/gr.219683.116)
# B1: mRNA-splicing (parent)
# chain: AGUUGCUGCUGGGAGCUCCAGCACAGUGAAAUGGACAGAAGGGCAGAGCAA
# Variants of: B1
# Experiment: exon inclusion enrichment index; higher = more inclusion; WT1 exon 5 minigene, HEK293
row,Variant,exon inclusion enrichment index
1,G5A C6G U7G C9A A39G A40C,0.00397
2,G5A C6G U7G C9A A39G A40G,0.0132
3,G5C C6G U7C U10C G13C A14C,1.79
4,U3G U4C G5C C6G U7C U10C,2.03
5,G8U C9G,0.455
6,C6A U7C C9A U10C A25C G26C,4.09
7,G5C C6G U7C U10C A37G G38C,3.22
8,G5A U7C G8A U10C U27C,4.31
9,G5U G8U C9U A40C G41A,0.0439
10,G5U G8U C9U G46U A47G,0.0739
11,C6A U7A C9A U10A A39G,0.404
12,G5A C6G U7G C9A C16A U17A,0.00207
13,C6A U7A C9A U10A A31U U32G,0.311
14,G5C C6G U7C U10C C36G,3.17
15,U7G G8A,2.02
16,U3G U4A G5C C6U G8C C9U U10C,0.91
17,C6U U7C,0.178
18,G5C C6G U7C U10C G33A,0.609
19,G41A G42C,0.419
20,G5C C6U G8C C9U U10C A47U G48A,1.58
21,G5U C6G G8U C9U,0.0807
22,G5C C6A U7C G8A U10A G21C C22G,0.322
23,G5C C6U G8C C9U U10C G13A,2.18
24,G5C C6A U7C G8A U10A A29G A30U,0.0104

row,Variant,exon inclusion enrichment index
1,G5C C6G U7C U10C A20G G21C,2.95
2,G5A C6G U7G C9A G11U G12U,0.000733
3,G5U G8U C9U G12U,0.0166
4,G5A C6U U7A G8U C9A U10A G11A,0.0538
5,G5A U7C G8A U10C C22A A23G,2.59
6,G5A U7C G8A U10C G38A A39U,0.204
7,G5A C6G U7G C9A A31C U32G,0.00133
8,G5C C6U C9A U10C,1.69
9,G5A U7C G8A U10C A35U,0.475
10,G5A C6G U7G C9A A29U A30U,0.000968
11,G5C C6G U7C U10C C16A U17A,4.02
12,G5C C6U G8C C9U U10C G12A G13C,0.692
13,C6A U7A C9A U10A A29C A30G,1.51
14,C6A U7A C9A U10A A29C A30U,0.34
15,G5A C6G U7G U10G,0.0189
16,G5C C6G U7C U10C G15A C16U,3.21
17,G5C C6A U7C G8A U10A G34A A35U,0.0204
18,G5A C6U U7A G8U C9A C16G U17G,0.00515
19,G5C C6G U7C U10C G38U,1.34
20,G5A C6G U7G C9A U10C,0.00449
21,C6A U7C C9A U10C G48C,2.99
22,G5A C6U U7A G8U C9A A30C A31C,0.126
23,G5C C6U G8C C9U U10C C24U A25G,3.05
24,G5A C6G U7G C9A G48U,0.00708

row,Variant,exon inclusion enrichment index
1,C6A U7A C9A U10A G41C G42U,2.17
2,G5U G8U C9U G33A G34A,0.0153
3,C6A U7A C9A U10A G34U A35G,0.134
4,G5C C6A U7C G8A U10A G33C G34C,0.0275
5,G5C C6U G8C C9A U10G,0.812
6,G5C C6A U7C G8A U10A G46A A47U,0.159
7,C6A U7A C9A U10A A14C G15A,0.473
8,G5U G8U C9U A25G,0.618
9,G5C C6A U7C G8A U10A C19U A20G,0.0251
10,C6A U7C C9A U10C C36A A37U,2.17
11,G5C C6A U7C G8A U10C G11C,1.58
12,G5C C6A U7C G8A U10C G11U,1.71
13,G5C C6G U7C G8U C9G U10C,2.53
14,G5A C6G U7G C9A C36G A37C,0.00103
15,G5A C6G U7G C9A A25G G26U,0.0111
16,G5C C6G U7C U10C G34A,2.69
17,G5C C6G U7C U10C G34U,1.32
18,G5A U7C G8A U10C C16A U17G,1.33
19,G34C A35U,0.0271
20,G5A C6G U7G C9A G28C A29U,0.00174
21,G5A U7G G8C U10C,2.13
22,C6A U7C C9A U10C G21A C22U,2.22
23,G5A C6G U7G C9A A31G U32A,0.0281
24,G5C C6A U7C G8A C9U,0.616

row,Variant,exon inclusion enrichment index
1,G5A U7C G8A U10C A40C G41A,0.979
2,G2A U3G G5U G8U C9U,0.0993
3,G5A C6A C9A,0.239
4,C6A U7A C9A U10A C18U C19U,0.00807
5,A39U,0.000772
6,C6A U7C C9A U10C C16A U17C,3.21
7,C18A,1.5
8,G5A U7C G8A U10C A25U G26U,1.75
9,C6A U7A C9A U10A G26U,0.794
10,G5C C6A U7C G8A U10A G46U A47G,0.118
11,G5C C6G U7C U10C G33C G34A,2.48
12,G5C C6G U7C U10C G38C A39G,2.71
13,G5C C6U G8C C9U U10C C18U C19A,0.179
14,G5A U7C G8U U10C,1.92
15,G5A U7C G8A U10C A20U G21A,1.36
16,A14G,0.0948
17,U4C U7C G8A U10C,3.91
18,G5A C6U U7C C9A,1.32
19,U4G G8U C9U,0.193
20,G5A U7C G8A U10C G28U A29C,1.47
21,C6A U7C C9A U10C C18A C19A,1.44
22,G2C U3G G5A U7C G8A U10C,2.64
23,C6A U7A C9A U10A A35G C36U,0.00209
24,G5C C6G U7C U10C A14U,1.05

row,Variant,exon inclusion enrichment index
1,G5A C6U U7A G8U C9A G42C G43A,0.295
2,G5C C6G U7C U10G G11A,2.98
3,C6A U7A C9A U10A A35G,0.217
4,G5A C6U U7A G8U C9A G33C,0.108
5,G5A C6U U7A G8U C9A G38U A39G,0.03
6,C6A U7A C9A U10A A47C G48A,0.547
7,G5C C6A U7C G8A U10A A37C G38A,0.149
8,G5U G8A C9G,0.061
9,G5A C6U U7A G8U C9A U10A,0.0162
10,G5C C6G U7C U10C A40U G41A,0.26
11,G12A G13U,0.459
12,C6A U7C C9A U10C G12C G13C,1.72
13,A37C G38C,0.217
14,G5C C6A U7C C9A U10A,0.851
15,C6A U7C C9A U10C A14U,1.94
16,G5C C6A U7C G8A U10A A40C G41A,0.0281
17,C6A U7A C9A U10A U32C,1.37
18,G5A U7C G8A U10C G33U G34C,0.815
19,C6A U7A C9A U10A G34U,0.123
20,G5A U7C G8A U10C A45C G46C,1.61
21,G8A C9U,0.355
22,G2U,0.476
23,G5C C6G U7C U10C A35U C36A,0.0112
24,C6A U7A C9A U10A G21A C22A,0.228

row,Variant,exon inclusion enrichment index
1,G5U G8U C9U C36G A37G,0.0302
2,G5C C6A U7C G8A U10A A25C G26C,0.037
3,G5C C6G U7C U10C C19A A20G,0.953
4,C6A U7A C9A U10A G33U G34C,0.221
5,G5A U7C G8A U10C C44A A45U,4.02
6,C6A U7A C9A U10A G11U G12U,1.53
7,G5U G8U C9U G26C U27G,0.648
8,U3G U4A C6A U7C C9A U10C,1.52
9,G5A U7C G8A U10C U27G G28A,2.37
10,G5A G8C U10C,1.52
11,G2A U3G G5C C6A U7C G8A U10A,0.0866
12,G5A C6U U7A G8U C9A A37U G38U,0.0205
13,A25G,0.595
14,C6G U7A C9A U10C,0.641
15,U17A C18A,0.314
16,A20C G21C,0.634
17,G5A C6U U7A G8U C9A A40G G41U,0.0544
18,G5A U7C G8A U10C G33C G34A,1.53
19,C6A U7A C9A U10A G48A,1.3
20,C6A U7A C9A U10A G48U,1.17
21,C6A U7A C9A U10A G26A U27A,0.813
22,G5C C6G U7C U10C G48C,3.91
23,G5C C6G U7C U10C G48A,4.29
24,C6A U7A C9A U10A A30G A31U,0.133

row,Variant,exon inclusion enrichment index
1,C6A U7C C9A U10C A23C C24G,4.61
2,G5C C6U G8C C9U U10C A30G A31C,0.276
3,G5A C6U U7A G8U C9A G41A,0.0374
4,G5C C6G U7C U10C A37U G38U,1.52
5,C6A U7C C9A U10C U32C G33U,2.94
6,G5A C6G U7G C9A C22G A23C,0.000809
7,G5C C6U U7C U10C,3.59
8,G5A C6G U7G C9A C24U A25U,0.000784
9,G5A C6G U7G C9A A40C G41A,0.00061
10,G5C C6U G8C C9U U10C A37G G38A,1.79
11,G5C C6U G8C C9U U10C A23U C24U,0.198
12,C6A U7A C9A U10A G46U,0.388
13,C6A U7A C9A,1.65
14,C6A U7A C9G,0.28
15,G5A U7C G8A U10C A37U G38C,1.52
16,U4A G5U C6U G8C C9U U10C,0.723
17,G5C C6G U7C U10C G34U A35U,1.2
18,C6A U7A C9A U10A A45G G46C,1.17
19,G5C C6G U7C U10C U32G G33A,1.79
20,G5C C6G U7C U10C A20G,0.887
21,G5A C6U U7A G8U C9A C19A A20G,0.00271
22,C6A U7A U10C,2.53
23,G5C C6G U7C U10C C16A,4.33
